Patent US20110300138A1 (published 2011)
Like-named read-outs stand apart in the source and are kept apart here.

What was measured:
[1] = target: wild type TSHR (human TSH receptor) expressed in CHO cells (human) (UniProt P16473); experiment: cell-based or functional assay
[2] = target: TSHR with Asp43 mutated to Ala, expressed in CHO cells (human) (UniProt P16473); experiment: cell-based or functional assay
[3] = target: TSHR with Arg80 mutated to Ala expressed in CHO cells (human) (UniProt P16473); experiment: cell-based or functional assay
[4] = target: wild type TSHR expressed in CHO cells (human) (UniProt P16473); experiment: cell-based or functional assay
[5] = target: TSHR with Lys129 mutated to Ala, expressed in CHO cells (human) (UniProt P16473); experiment: cell-based or functional assay
[6] = target: TSHR with Asp203 mutated to Ala expressed in CHO cells (human) (UniProt P16473); experiment: cell-based or functional assay
[7] = target: wild type human TSHR (full length) expressed in CHO cells (human) (UniProt P16473); experiment: cell-based or functional assay
[8] = target: human TSHR (thyroid stimulating hormone receptor), full length, expressed in transfected CHO cells (human) (UniProt P16473); experiment: cell-based or functional assay
[9] = target: human TSH receptor (full length) coated on ELISA plate wells (human) (UniProt P16473); experiment: TSH-biotin binding inhibition ELISA, TSHR coated wells; 0.01 µg/mL in assay buffer + 100 µg/mL 5B3 IgG

5B3 IgG (antibody)
% inhibition of TSH stimulation, Exp 1: 5B3 10 µg/mL [1]: 0%
% inhibition of TSH stimulation, Exp 1: 5B3 100 µg/mL [1]: 0%
% inhibition of TSH stimulation, Exp 2: 5B3 10 µg/mL [1]: 0%
% inhibition of TSH stimulation, Exp 2: 5B3 100 µg/mL [1]: 0%
% inhibition of TSH stimulation: 5B3 10 µg/mL [1]: 0%
% inhibition of TSH stimulation: 5B3 100 µg/mL [1]: 0%
% inhibition of TSH stimulation; 5B3 10 µg/mL [1]: 0%
% inhibition of TSH stimulation; 5B3 100 µg/mL [1]: 0%
Cyclic AMP produced; 5B3 10 µg/mL + TSH 3 ng/mL [1]: 75.6 pmol/mL
Cyclic AMP produced; 5B3 100 µg/mL + TSH 3 ng/mL [1]: 68.3 pmol/mL
% inhibition of TSH stimulation, 5B3 10 µg/mL, mutated TSHR [2]: 0%
% inhibition of TSH stimulation, 5B3 100 µg/mL, mutated TSHR [2]: 4%
Cyclic AMP produced (pmol/mL), 5B3 10 µg/mL + TSH 3 ng/mL, mutated TSHR [2]: 73.7 pmol/mL
Cyclic AMP produced (pmol/mL), 5B3 100 µg/mL + TSH 3 ng/mL, mutated TSHR [2]: 58 pmol/mL
Mutated/wild type (%), 5B3 10 µg/mL + TSH 3 ng/mL [2]: 69%
Mutated/wild type (%), 5B3 100 µg/mL + TSH 3 ng/mL [2]: 56%
% inhibition of TSH stimulation; 5B3 10 µg/mL [3]: 0.3%
% inhibition of TSH stimulation; 5B3 100 µg/mL [3]: 4%
Cyclic AMP produced; 5B3 10 µg/mL + TSH 3 ng/mL [3]: 105 pmol/mL
Cyclic AMP produced; 5B3 100 µg/mL + TSH 3 ng/mL [3]: 101 pmol/mL
Mutated/wild type (%) of cyclic AMP produced; 5B3 10 µg/mL + TSH 3 ng/mL [3]: 102%
Mutated/wild type (%) of cyclic AMP produced; 5B3 100 µg/mL + TSH 3 ng/mL [3]: 107%
% inhibition of TSH stimulation (stimulator given as M22), wild type TSHR; 5B3 10 µg/mL [4]: 0%
% inhibition of TSH stimulation (stimulator given as M22), wild type TSHR; 5B3 100 µg/mL [4]: 0%
% inhibition of TSH stimulation, wild type TSHR; 5B3 10 µg/mL [4]: 0%
% inhibition of TSH stimulation, wild type TSHR; 5B3 100 µg/mL [4]: 0%
% inhibition of TSH stimulation; 5B3 10 µg/mL [4]: 0%
% inhibition of TSH stimulation; 5B3 10 µg/mL; Experiment 1 [4]: 0%
% inhibition of TSH stimulation; 5B3 10 µg/mL; Experiment 2 [4]: 0%
% inhibition of TSH stimulation; 5B3 100 µg/mL [4]: 0%
% inhibition of TSH stimulation; 5B3 100 µg/mL; Experiment 1 [4]: 0%
% inhibition of TSH stimulation; 5B3 100 µg/mL; Experiment 2 [4]: 8%
Cyclic AMP produced; 5B3 10 µg/mL + TSH 3 ng/mL [4]: 103 pmol/mL
Cyclic AMP produced; 5B3 10 µg/mL + TSH 3 ng/mL; Experiment 1 [4]: 82.8 pmol/mL
Cyclic AMP produced; 5B3 10 µg/mL + TSH 3 ng/mL; Experiment 2 [4]: 106 pmol/mL
Cyclic AMP produced; 5B3 100 µg/mL + TSH 3 ng/mL [4]: 94.8 pmol/mL
Cyclic AMP produced; 5B3 100 µg/mL + TSH 3 ng/mL; Experiment 1 [4]: 80.7 pmol/mL
Cyclic AMP produced; 5B3 100 µg/mL + TSH 3 ng/mL; Experiment 2 [4]: 90.4 pmol/mL
Experiment 1: % inhibition of TSH stimulation; 5B3 10 µg/mL [4]: 0%
Experiment 1: % inhibition of TSH stimulation; 5B3 100 µg/mL [4]: 0%
Experiment 1; % inhibition of TSH stimulation; 5B3 10 µg/mL [4]: 0%
Experiment 1; % inhibition of TSH stimulation; 5B3 100 µg/mL [4]: 7%
Experiment 1; cyclic AMP produced; 5B3 10 µg/mL + TSH 3 ng/mL [4]: 79.6 pmol/mL
Experiment 1; cyclic AMP produced; 5B3 100 µg/mL + TSH 3 ng/mL [4]: 72.7 pmol/mL
Experiment 2: % inhibition of TSH stimulation; 5B3 10 µg/mL [4]: 0%
Experiment 2: % inhibition of TSH stimulation; 5B3 100 µg/mL [4]: 0%
Experiment 2; % inhibition of TSH stimulation; 5B3 10 µg/mL [4]: 0%
Experiment 2; % inhibition of TSH stimulation; 5B3 100 µg/mL [4]: 0%
Experiment 2; cyclic AMP produced; 5B3 10 µg/mL + TSH 3 ng/mL [4]: 107 pmol/mL
Experiment 2; cyclic AMP produced; 5B3 100 µg/mL + TSH 3 ng/mL [4]: 101 pmol/mL
% inhibition of TSH stimulation; 5B3 10 µg/mL ([4]; record 2): 0%
% inhibition of TSH stimulation; 5B3 100 µg/mL ([4]; record 2): 0%
Cyclic AMP produced; 5B3 10 µg/mL + TSH 3 ng/mL ([4]; record 2): 83.6 pmol/mL
Cyclic AMP produced; 5B3 100 µg/mL + TSH 3 ng/mL ([4]; record 2): 88 pmol/mL
% inhibition of TSH stimulation; 5B3 10 µg/mL [5]: 0%
% inhibition of TSH stimulation; 5B3 100 µg/mL [5]: 13%
Cyclic AMP produced; 5B3 10 µg/mL + TSH 3 ng/mL [5]: 50.5 pmol/mL
Cyclic AMP produced; 5B3 100 µg/mL + TSH 3 ng/mL [5]: 42.6 pmol/mL
Mutated/wild type (%) of cyclic AMP produced; 5B3 10 µg/mL + TSH 3 ng/mL [5]: 94%
Mutated/wild type (%) of cyclic AMP produced; 5B3 100 µg/mL + TSH 3 ng/mL [5]: 81%
% inhibition of TSH stimulation: 5B3 10 µg/mL [6]: 0%
% inhibition of TSH stimulation: 5B3 100 µg/mL [6]: 0%
Cyclic AMP, Mutated/wild type (%): 5B3 10 µg/mL + TSH 3 ng/mL [6]: 89%
Cyclic AMP, Mutated/wild type (%): 5B3 100 µg/mL + TSH 3 ng/mL [6]: 84%
% inhibition of TSH stimulation, 5B3 10 µg/mL, wild type TSHR [7]: 0%
% inhibition of TSH stimulation, 5B3 100 µg/mL, wild type TSHR [7]: 0%
Cyclic AMP produced (pmol/mL), 5B3 10 µg/mL + TSH 3 ng/mL, wild type TSHR [7]: 106 pmol/mL
Cyclic AMP produced (pmol/mL), 5B3 100 µg/mL + TSH 3 ng/mL, wild type TSHR [7]: 104 pmol/mL
% Inhibition of K1-18 IgG stimulation; 10 ng/mL K1-18 IgG + 100 µg/mL 5B3 IgG [8]: 0%
% Inhibition of K1-18 stimulation; 10 ng/mL K1-18 + 100 µg/mL 5B3 IgG [8]: 0%
% Inhibition of K1-18 stimulation; 10 ng/mL KM 8 [K1-18] + 10 µg/mL 5B3 IgG [8]: 3.5%

M22 IgG (antibody)
% inhibition of TSH-biotin binding [9]: 12.9%

B1: 5C9 IgG (antibody, from another filing, V domains shown)
VH: EVQLVESGGGLIQPGGSLRLSCAASGFTVSSNYMSWVRQAPGKGLEWVSVTYSGGSTSYADSVKGRFTISRDNSKNTLYLQMNSLRAEDTAVYYCARGGRYCSSISCYARSGCDYWGQGTLVTVSS
VL: AIQMTQSPSSLSASVGDRVTITCRASQSISNYLNWYQQKPGKAPKLLIYAASSLQSGVPSRFSGSGSGTDFTLTISSLQPEDFATYYCQQSYSSPSTTFGQGTKLEIK
% inhibition of TSH-biotin binding [9]: 20.7%
% Inhibition of K1-18 IgG stimulation; 10 ng/mL K1-18 IgG + 0.001 µg/mL 5C9 IgG [8]: 19%
% Inhibition of K1-18 IgG stimulation; 10 ng/mL K1-18 IgG + 0.01 µg/mL 5C9 IgG [8]: 0%
% Inhibition of K1-18 IgG stimulation; 10 ng/mL K1-18 IgG + 0.1 µg/mL 5C9 IgG [8]: 91%
% Inhibition of K1-18 IgG stimulation; 10 ng/mL K1-18 IgG + 0.5 µg/mL 5C9 IgG [8]: 99%
% Inhibition of K1-18 IgG stimulation; 10 ng/mL K1-18 IgG + 1 µg/mL 5C9 IgG [8]: 98%
% Inhibition of K1-18 IgG stimulation; 10 ng/mL K1-18 IgG + 5 µg/mL 5C9 IgG [8]: 97%
% Inhibition of K1-18 IgG stimulation; 10 ng/mL K1-18 IgG + 10 µg/mL 5C9 IgG [8]: 97%
% Inhibition of K1-18 IgG stimulation; 10 ng/mL K1-18 IgG + 50 µg/mL 5C9 IgG [8]: 100%
% Inhibition of K1-18 IgG stimulation; 10 ng/mL K1-18 IgG + 100 µg/mL 5C9 IgG [8]: 100%
% Inhibition of K1-18 stimulation; 10 ng/mL K1-18 + 0.001 µg/mL 5C9 IgG [8]: 0%
% Inhibition of K1-18 stimulation; 10 ng/mL K1-18 + 0.01 µg/mL 5C9 IgG [8]: 25%
% Inhibition of K1-18 stimulation; 10 ng/mL K1-18 + 0.1 µg/mL 5C9 IgG [8]: 99%
% Inhibition of K1-18 stimulation; 10 ng/mL K1-18 + 1 µg/mL 5C9 IgG [8]: 99.4%
% Inhibition of K1-18 stimulation; 10 ng/mL K1-18 + 10 µg/mL 5C9 IgG [8]: 99.6%
% Inhibition of K1-18 stimulation; 10 ng/mL K1-18 + 100 µg/mL 5C9 IgG [8]: 98.7%
